Test results published in patent US20230357386A1 (EISAI R AND D MANAGEMENT, published 2023).
Residue numbers refer to the chain shown, from its start.

What was measured:
[1] = molecular target: T1, monkey EphA4 extracellular domain-SEAP-His protein (monkey); assay: ELISA: monkey EphA4 extracellular domain-SEAP-His captured by anti-6-His antibody, detection with HRP anti-human IgG Fc
T1 construct: not shown: SEAP and histidine tag
Description: (§1) The antibody A and the antibody B were evaluated for their binding activity against each EphA4 according to the following steps. Each well of a 96-well plate (Nunc) was coated with a rabbit anti-6-His antibody (Bethyl Laboratories, Inc.). After incubation at room temperature for 1 hour, each well was blocked with 1% BlockAce (KAC Co., Ltd.) overnight at 4° C. After washing with 0.02% Tween 20/PBS three times, each of the mouse, rat, monkey and human EphA4 extracellular domain-SEAP-His proteins (final concentration: 1 nM) was seeded in each well and incubated at room temperature for 1 hour. After washing three times, the antibody A or the antibody B (0, 0.00013, 0.00064, 0.0032, 0.016, 0.08, 0.4, 2, and 10 µg/mL) was added to each well and incubated at room temperature for 1 hour. After washing three times, a horseradish peroxidase-labeled rabbit anti-human IgG Fcy fragment antibody (Jackson ImmunoResearch Laboratories, Inc.) was added thereto and incubated at room temperature for 1 hour. After washing three times, a TMBZ (3,3′,5,5′-tetramethylbenzidine, Kirkegaard & Perry Laboratories, Inc.) solution was added to each well. An equal amount of a reaction stopping solution (2 N H₂SO₄, FUJIFILM Wako Pure Chemical Corp.) was added to each well. The absorbance at 450 nm was read using a microplate reader (Thermo Fisher Scientific Inc.).

[2] = molecular target: T2, human EphA4 extracellular domain-MBP-His protein (human); assay: ELISA, domain-MBP-His captured by anti-6-His antibody, antibody 10 nM
T2 construct: also called human EphA4 extracellular domain (ECD); ECD
Description: The antibody A, the antibody B, and human IgG (Sigma-Aldrich Co. LLC) were evaluated for their binding activity against each EphA4 according to the following steps. Each well of a 96-well plate (Nunc) was coated with a rabbit anti-6-His antibody (Bethyl Laboratories, Inc.). After incubation at room temperature for 1 hour, each well was blocked with 1% BlockAce (KAC Co., Ltd.) overnight at 4° C. After washing with 0.02% Tween 20/PBS three times, each of the human EphA4 extracellular domain-, human EphA4 ligand-binding domain-, human EphA4 fibronectin type III domain 1-, and human EphA4 fibronectin type III domain 2-MBP-His proteins or the MBP-His protein (final concentration: 1 nM) was seeded in each well and incubated at room temperature for 1 hour. After washing three times, the antibody A, the antibody B, or human IgG (10 nM) was added to each well and incubated at room temperature for 1 hour. After washing three times, a horseradish peroxidase-labeled rabbit anti-human IgG Fcy fragment antibody (Jackson ImmunoResearch Laboratories, Inc.) was added thereto and incubated at room temperature for 1 hour. After washing three times, a TMBZ (3,3′,5,5′-tetramethylbenzidine, Kirkegaard & Perry Laboratories, Inc.) solution was added to each well. […] The absorbance at 450 nm and 650 nm was read using a microplate reader (Thermo Fisher Scientific Inc.).

[3] = molecular target: human EphA4 fibronectin type III domain 2-MBP-His protein (human, UniProt P54764 436-547; P0AEX9 29-392 = MBP); assay: ELISA, domain-MBP-His captured by anti-6-His antibody
Description: (§2) The antibody A, the antibody B, and human IgG (Sigma-Aldrich Co. LLC) were evaluated for their binding activity against each EphA4 according to the following steps. Each well of a 96-well plate (Nunc) was coated with a rabbit anti-6-His antibody (Bethyl Laboratories, Inc.). After incubation at room temperature for 1 hour, each well was blocked with 1% BlockAce (KAC Co., Ltd.) overnight at 4° C. After washing with 0.02% Tween 20/PBS three times, each of the human EphA4 extracellular domain-, human EphA4 ligand-binding domain-, human EphA4 fibronectin type III domain 1-, and human EphA4 fibronectin type III domain 2-MBP-His proteins or the MBP-His protein (final concentration: 1 nM) was seeded in each well and incubated at room temperature for 1 hour. After washing three times, the antibody A, the antibody B, or human IgG (10 nM) was added to each well and incubated at room temperature for 1 hour. After washing three times, a horseradish peroxidase-labeled rabbit anti-human IgG Fcy fragment antibody (Jackson ImmunoResearch Laboratories, Inc.) was added thereto and incubated at room temperature for 1 hour. After washing three times, a TMBZ (3,3′,5,5′-tetramethylbenzidine, Kirkegaard & Perry Laboratories, Inc.) solution was added to each well. An equal amount of a reaction stopping solution (2 N H₂SO₄, FUJIFILM Wako Pure Chemical Corp.) was added to each well. The absorbance at 450 nm and 650 nm was read using a microplate reader (Thermo Fisher Scientific Inc.).

[4] = molecular target: human EphA4 fibronectin type III domain 1-MBP-His protein (human, UniProt P54764 326-439; P0AEX9 29-392 = MBP); assay: as above
Description: as §2

[5] = molecular target: T3, rat EphA4 extracellular domain-SEAP-His protein (rat, UniProt Q03137 20-547 (mouse entry)); assay: ELISA: rat EphA4 extracellular domain-SEAP-His captured by anti-6-His antibody, detection with HRP anti-human IgG Fc
T3 construct: not shown: SEAP and histidine tag
Description: as §1

[6] = molecular target: T4, human EphA4 extracellular domain-SEAP-His protein (human); assay: competition ELISA, captured human EphA4 ECD-SEAP-His; competitor biotinylated human Ephrin A5-Fc (0.7 nM)
T4 construct: also called Human EphA4 extracellular domain-SEAP-His10
Description: (§3) The antibody A and the antibody B were evaluated for their inhibitory activity against the binding between human EphA4 and its human ligand according to the following steps. Each well of a 96-well plate (Nunc) was coated with an anti-alkaline phosphatase antibody (Thermo Fisher Scientific Inc.). After incubation overnight at 4° C., each well was blocked with 1% BlockAce (KAC Co., Ltd.) overnight at 4° C. After washing with 0.02% Tween 20/PBS three times, the human EphA4 extracellular domain-SEAP-His protein (final concentration: 10 nM) was seeded in each well and incubated at room temperature for 1 hour. After washing three times, ligands and serially diluted antibody A or antibody B (0, 0.003, 0.01, 0.03, 0.1, 0.3, 1, 3, 10, 30, 100, 300, 1000, and 3000 nM) were added to each well. The ligands used were biotinylated human Ephrin A5-Fc chimera (R&D Systems, Inc., final concentration: 0.7 nM) and biotinylated human Ephrin B3-Fc chimera (R&D Systems, Inc., final concentration: 2.3 nM). After incubation at room temperature for 1 hour and subsequent washing three times, a horseradish peroxidase-labeled streptavidin (GE Healthcare Japan Corp.) was added thereto and incubated at room temperature for 1 hour. […] The absorbance at 450 nm was read using a microplate reader (Thermo Fisher Scientific Inc.).

[7] = molecular target: T4, human EphA4 extracellular …; assay: ELISA: human EphA4 extracellular domain-SEAP-His captured by anti-6-His antibody, detection with HRP anti-human IgG Fc
Description: as §1

[8] = molecular target: T4, human EphA4 extracellular …; assay: competition ELISA, captured human EphA4 ECD-SEAP-His; competitor biotinylated human Ephrin B3-Fc (2.3 nM)
Description: as §3

[9] = molecular target: T4, human EphA4 extracellular …; assay: SPR (Biacore T200), EphA4 ECD-SEAP-His10 captured by anti-His antibody, antibody as analyte, 1:1 model, mean of three runs
Description: The binding affinity of the antibody A and the antibody B to human EphA4 was determined by surface plasmon resonance (SPR) using Biacore T200 (Cytiva). First, an anti-His antibody (Cytiva, 28-9950-56) was immobilized on sensor chip CM5. The immobilization was performed by the amine coupling method using N-hydroxysuccinimide (NHS) and N-ethyl-N′-(3-dimethylaminopropyl)carbodiimide hydrochloride (EDC). Ethanolamine was used in blocking (the sensor chip and the reagents for immobilizations were all manufactured by Cytiva). The antibody was diluted with a buffer solution for immobilization (10 mM sodium acetate, pH 4.5) into 3 µg/mL and immobilized on the sensor chip according to the protocol attached to Biacore T200. Human EphA4 extracellular domain-SEAP-His10 was diluted with a running buffer solution HBS-EP+ (Cytiva, BR-1001-69), injected onto a flow cell for 120 seconds, and captured (amount of the antibody captured: approximately 6 RU). Subsequently, the antibody A or the antibody B serially diluted in the range of 100, 50, 25, 12.5, 6.3, 3.2, 1.6, and 0 nM using HBS-EP+ was added to the sensor chip for 120 seconds. […] The experiment mentioned above was carried out three times, and an average value of each parameter was calculated.

[10] = molecular target: T4, human EphA4 extracellular …; assay: SPR (Biacore T200): human EphA4 extracellular domain-SEAP-His10 captured by anti-His antibody on CM5, antibody as analyte 1.6-100 nM, 1:1 fit
Description: The binding affinity of the antibody A and the antibody B to human EphA4 was determined by surface plasmon resonance (SPR) using Biacore T200 (Cytiva). First, an anti-His antibody (Cytiva, 28-9950-56) was immobilized on sensor chip CM5. The immobilization was performed by the amine coupling method using N-hydroxysuccinimide (NHS) and N-ethyl-N′-(3-dimethylaminopropyl)carbodiimide hydrochloride (EDC). Ethanolamine was used in blocking (the sensor chip and the reagents for immobilizations were all manufactured by Cytiva). The antibody was diluted with a buffer solution for immobilization (10 mM sodium acetate, pH 4.5) into 3 µg/mL and immobilized on the sensor chip according to the protocol attached to Biacore T200. Human EphA4 extracellular domain-SEAP-His10 was diluted with a running buffer solution HBS-EP+ (Cytiva, BR-1001-69), injected onto a flow cell for 120 seconds, and captured (amount of the antibody captured: approximately 6 RU). Subsequently, the antibody A or the antibody B serially diluted in the range of 100, 50, 25, 12.5, 6.3, 3.2, 1.6, and 0 nM using HBS-EP+ was added to the sensor chip for 120 seconds. Binding reaction curves were sequentially observed at the time of the addition (association phase, 120 sec) and after the completion of the addition (dissociation phase, 600 sec). After the completion of each observation, the sensor chip was regenerated by the addition of 3 M MgCl₂ (60 sec). The obtained binding reaction curves were subjected to fitting analysis using 1:1 binding models and software BIA evaluation attached to the system to calculate the binding affinity (KD = kd / ka) to human EphA4. The experiment mentioned above was carried out three times, and an average value of each parameter was calculated.

[11] = molecular target: T5, mouse EphA4 extracellular domain-SEAP-His protein (mouse, UniProt Q03137 20-547); assay: ELISA: mouse EphA4 extracellular domain-SEAP-His captured by anti-6-His antibody, detection with HRP anti-human IgG Fc
T5 construct: not shown: SEAP and histidine tag
Description: as §1

T4 sequence (chain, as listed by the source limits assumed): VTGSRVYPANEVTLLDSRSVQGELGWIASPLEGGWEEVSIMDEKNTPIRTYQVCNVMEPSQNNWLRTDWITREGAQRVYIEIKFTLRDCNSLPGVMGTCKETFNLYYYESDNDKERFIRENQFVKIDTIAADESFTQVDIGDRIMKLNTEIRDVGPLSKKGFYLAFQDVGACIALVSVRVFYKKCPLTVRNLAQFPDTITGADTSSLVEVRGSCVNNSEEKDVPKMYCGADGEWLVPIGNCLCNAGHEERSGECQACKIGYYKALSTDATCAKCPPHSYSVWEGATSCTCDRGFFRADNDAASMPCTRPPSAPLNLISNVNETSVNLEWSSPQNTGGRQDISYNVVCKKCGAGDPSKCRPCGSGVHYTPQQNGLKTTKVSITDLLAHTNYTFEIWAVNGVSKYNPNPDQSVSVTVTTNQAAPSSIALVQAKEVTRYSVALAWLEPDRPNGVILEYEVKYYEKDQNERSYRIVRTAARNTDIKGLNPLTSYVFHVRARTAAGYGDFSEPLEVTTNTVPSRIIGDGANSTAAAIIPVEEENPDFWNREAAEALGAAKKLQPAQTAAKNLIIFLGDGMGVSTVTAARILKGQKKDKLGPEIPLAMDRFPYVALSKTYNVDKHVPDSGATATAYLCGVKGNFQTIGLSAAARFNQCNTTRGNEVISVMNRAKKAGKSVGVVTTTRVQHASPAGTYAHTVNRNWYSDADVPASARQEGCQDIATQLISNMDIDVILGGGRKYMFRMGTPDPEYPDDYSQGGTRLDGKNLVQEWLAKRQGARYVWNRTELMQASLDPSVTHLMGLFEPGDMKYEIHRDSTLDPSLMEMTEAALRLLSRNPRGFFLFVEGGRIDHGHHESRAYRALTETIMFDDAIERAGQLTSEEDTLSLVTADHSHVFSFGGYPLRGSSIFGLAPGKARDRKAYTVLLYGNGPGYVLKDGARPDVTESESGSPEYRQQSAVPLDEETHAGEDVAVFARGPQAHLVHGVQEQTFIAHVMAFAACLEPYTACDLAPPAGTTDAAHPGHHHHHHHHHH
T1 sequence (chain, as listed by the source): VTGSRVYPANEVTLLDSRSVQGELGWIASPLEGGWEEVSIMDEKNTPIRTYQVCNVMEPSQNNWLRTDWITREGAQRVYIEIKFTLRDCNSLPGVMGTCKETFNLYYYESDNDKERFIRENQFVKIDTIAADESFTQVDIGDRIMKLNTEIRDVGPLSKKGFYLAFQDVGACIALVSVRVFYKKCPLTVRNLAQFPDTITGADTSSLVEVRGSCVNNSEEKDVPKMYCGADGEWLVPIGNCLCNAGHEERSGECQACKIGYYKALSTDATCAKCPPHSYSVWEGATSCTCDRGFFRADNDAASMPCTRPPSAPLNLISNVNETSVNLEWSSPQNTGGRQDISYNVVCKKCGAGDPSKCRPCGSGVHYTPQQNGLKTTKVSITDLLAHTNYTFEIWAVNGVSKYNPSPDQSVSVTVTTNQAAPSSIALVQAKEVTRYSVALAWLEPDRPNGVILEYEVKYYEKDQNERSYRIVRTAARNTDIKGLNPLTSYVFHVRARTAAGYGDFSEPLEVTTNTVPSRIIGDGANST

B1: antibody A (human anti-EphA4 monoclonal antibody) (antibody, V domains shown)
VH: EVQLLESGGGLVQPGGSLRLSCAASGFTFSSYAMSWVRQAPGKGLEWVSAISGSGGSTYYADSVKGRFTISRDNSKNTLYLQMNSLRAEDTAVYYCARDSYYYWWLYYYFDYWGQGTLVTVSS
VL: SSELTQDPAVSVALGQTVRITCQGDSLRSYYASWYQQKPGQAPVLVIYGKNNRPSGIPDRFSGSSSGNTASLTITGAQAEDEADYYCQSSYSSSYSYVFGGGTKLTVLG
notes: Human IgG2 / lambda, from a phage library scFv converted to IgG; made in Expi293F or CHOK1SV cells
[1]
  EC50 (read off the curve): ~0.02 nM
[2]
  binding result: binds
[3]
  binding result: no binding (tested: 10 nM)
[4]
  binding result: no binding (tested: 10 nM)
[5]
  EC50 (read off the curve): ~0.02 nM
[6]
  IC50: 3.9 nM
[7]
  EC50 (read off the curve): ~0.02 nM
[8]
  IC50: 3 nM
[9]
  Kd: 0.467 nM
[10]
  koff: 0.000251 s⁻¹
  kon: 537000 M⁻¹ s⁻¹
[11]
  EC50 (read off the curve): ~0.02 nM

B2: antibody B (human anti-EphA4 monoclonal antibody) (antibody, human IgG1, lambda, V domains shown)
VH: EVQLLESGGGLVQPGGSLRLSCAASGFTFSSFAMSWVRQAPGKGLEWVSAISGSGGSTYYADSVKGRFTISRDNSKNTLYLQMNSLRAEDTAVYYCARDDYYPYWWYYYYFDYWGQGTLVTVSS
VL: B1 VL with Y31F
notes: Human IgG1/2 (IgG1 CH1 and hinge, IgG2 CH2 and CH3) / lambda; made in Expi293F or CHOK1SV cells
[1]
  EC50 (read off the curve): ~0.04 nM
[2]
  binding result: binds
[3]
  binding result: no binding (tested: 10 nM)
[4]
  binding result: no binding (tested: 10 nM)
[5]
  EC50 (read off the curve): ~0.04 nM
[6]
  IC50: 4.8 nM
[7]
  EC50 (read off the curve): ~0.04 nM
[8]
  IC50: 4.1 nM
[9]
  Kd: 0.156 nM
[10]
  koff: 8.01e-05 s⁻¹
  kon: 512000 M⁻¹ s⁻¹
[11]
  EC50 (read off the curve): ~0.04 nM
